Reference: article PMC10872465 (Molecular cell, 2023)

B1: hRpn13 (1–150) (domain or fragment, human, UniProt Q16186 1-150, looked up)
chain: MTTSGALFPSLVPGSRGASNKYLVEFRAGKMSLKGTTVTPDKRKGLVYIQQTDDSLIHFCWKDRTSGNVEDDLIIFPDDCEFKRVPQCPSGRVYVLKFKAGSKRLFFWMQEPKTDQDEEHCRKVNEYLNNPPMPGALGASGSSGHELSAL

How the values were obtained:
Assay in all cases: NMR titration
MBP-HDAC8 = target: T1, MBP-HDAC8 (UniProt Q9BY41 8-374)
T1 sequence (looked up): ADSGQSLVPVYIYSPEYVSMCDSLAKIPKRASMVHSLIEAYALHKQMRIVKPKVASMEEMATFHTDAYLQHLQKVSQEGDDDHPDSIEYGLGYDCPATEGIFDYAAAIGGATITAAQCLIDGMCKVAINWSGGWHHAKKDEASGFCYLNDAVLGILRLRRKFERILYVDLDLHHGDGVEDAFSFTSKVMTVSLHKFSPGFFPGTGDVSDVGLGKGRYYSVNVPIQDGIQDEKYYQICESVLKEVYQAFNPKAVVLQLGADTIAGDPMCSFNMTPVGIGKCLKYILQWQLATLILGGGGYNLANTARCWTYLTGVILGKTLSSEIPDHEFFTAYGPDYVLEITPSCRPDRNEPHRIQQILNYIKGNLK

PADI4 (1–663) = PADI4 (1–663) (UniProt Q9UM07 1-663)
Sequence of PADI4 (1–663) (Q9UM07 whole entry): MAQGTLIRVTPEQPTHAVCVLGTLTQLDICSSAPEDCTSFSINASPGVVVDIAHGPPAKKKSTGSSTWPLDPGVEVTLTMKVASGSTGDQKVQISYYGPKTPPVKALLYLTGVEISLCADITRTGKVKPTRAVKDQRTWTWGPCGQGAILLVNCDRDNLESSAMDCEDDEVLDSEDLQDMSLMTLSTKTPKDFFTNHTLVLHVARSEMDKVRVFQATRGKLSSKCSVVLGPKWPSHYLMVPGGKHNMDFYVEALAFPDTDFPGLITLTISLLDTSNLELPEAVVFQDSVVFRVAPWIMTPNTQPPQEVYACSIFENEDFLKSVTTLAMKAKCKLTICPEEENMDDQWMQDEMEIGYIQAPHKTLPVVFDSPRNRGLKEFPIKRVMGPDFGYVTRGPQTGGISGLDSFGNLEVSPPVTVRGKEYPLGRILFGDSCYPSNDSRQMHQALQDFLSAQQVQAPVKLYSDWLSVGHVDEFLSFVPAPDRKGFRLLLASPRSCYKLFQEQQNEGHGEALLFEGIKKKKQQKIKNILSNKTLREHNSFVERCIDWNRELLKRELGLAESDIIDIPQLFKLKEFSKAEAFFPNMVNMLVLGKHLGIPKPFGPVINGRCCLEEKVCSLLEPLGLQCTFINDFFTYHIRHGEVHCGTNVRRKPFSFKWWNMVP

hRpn13 (1–150) = target: B1

B1: binds (MBP-HDAC8); binds (PADI4 (1–663)).

B2: hRpn2 (940–953) (peptide, UniProt Q99460 940-953, looked up)
chain: QEPEPPEPFEYIDD
B2: binds (hRpn13 (1–150)).
